This note sets out measurements from PMC7699706, “Responses of DNA Mismatch Repair Proteins to a Stable G-Quadruplex Embedded into a DNA Duplex Structure”.

Residue numbers refer to the chain shown, from its start.

Data set [1] deals with T1, ecMutL (Escherichia coli, UniProt P23367 1-615). The data set is described as follows: EMSA; no nucleotide, on ice, 100 nM DNA; MutS EMSA: 5 nM DNA, 20 mM HEPES-KOH pH 7.9, 5 mM MgCl2, 120 mM KCl, 0.5 mg/mL BSA, 1 mM nucleotide, 37 C 15 min; MutL EMSA: 100 nM DNA, 20 mM HEPES pH 8.0 (10). As to conditions: protein: recombinant; chain copies: 2; label: 3'-TAMRA on strand 2 (95G4); blunt; 19-nt insert in strand 2 folded as intramolecular parallel G4 within duplex. A general note: Mobility shift assays separate free from complexed probe on a gel.

Data set [2] concerns the target T2, rsMutS (Rhodobacter sphaeroides strain 2.4.1, UniProt Q3IYI5 1-875).
T2 sequence: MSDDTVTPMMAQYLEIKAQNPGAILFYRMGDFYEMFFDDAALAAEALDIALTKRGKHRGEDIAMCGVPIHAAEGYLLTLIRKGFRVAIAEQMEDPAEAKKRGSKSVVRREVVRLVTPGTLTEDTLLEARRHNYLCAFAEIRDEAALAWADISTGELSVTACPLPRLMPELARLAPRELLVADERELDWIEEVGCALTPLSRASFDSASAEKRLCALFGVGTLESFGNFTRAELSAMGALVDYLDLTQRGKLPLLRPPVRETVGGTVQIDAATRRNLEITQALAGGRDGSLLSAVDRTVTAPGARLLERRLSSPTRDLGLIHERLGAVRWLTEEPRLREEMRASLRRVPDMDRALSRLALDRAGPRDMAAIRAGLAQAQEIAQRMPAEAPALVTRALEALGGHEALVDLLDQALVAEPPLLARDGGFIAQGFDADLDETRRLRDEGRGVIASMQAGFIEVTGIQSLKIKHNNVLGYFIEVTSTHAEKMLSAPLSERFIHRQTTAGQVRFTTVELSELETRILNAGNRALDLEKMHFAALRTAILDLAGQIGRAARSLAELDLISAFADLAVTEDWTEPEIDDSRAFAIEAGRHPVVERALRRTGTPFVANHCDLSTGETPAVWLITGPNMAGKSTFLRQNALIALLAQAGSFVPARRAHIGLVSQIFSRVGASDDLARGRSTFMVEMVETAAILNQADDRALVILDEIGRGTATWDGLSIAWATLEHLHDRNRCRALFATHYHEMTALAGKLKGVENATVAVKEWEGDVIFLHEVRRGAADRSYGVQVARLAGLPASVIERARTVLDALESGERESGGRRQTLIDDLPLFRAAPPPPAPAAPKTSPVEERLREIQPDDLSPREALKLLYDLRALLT
Kind of data set: EMSA; 1 mM ATP, 5 mM MgCl2; MutS EMSA: 5 nM DNA, 20 mM HEPES-KOH pH 7.9, 5 mM MgCl2, 120 mM KCl, 0.5 mg/mL BSA, 1 mM nucleotide, 37 C 15 min; MutL EMSA: 100 nM DNA, 20 mM HEPES pH 8.0 (10). To be noted: protein: recombinant, tags: N-terminal His6 (pET15b), chain copies: 2, blunt.

The target of data set [3] is T3, ecMutS (Escherichia coli, UniProt P23909 1-853).
T3 sequence: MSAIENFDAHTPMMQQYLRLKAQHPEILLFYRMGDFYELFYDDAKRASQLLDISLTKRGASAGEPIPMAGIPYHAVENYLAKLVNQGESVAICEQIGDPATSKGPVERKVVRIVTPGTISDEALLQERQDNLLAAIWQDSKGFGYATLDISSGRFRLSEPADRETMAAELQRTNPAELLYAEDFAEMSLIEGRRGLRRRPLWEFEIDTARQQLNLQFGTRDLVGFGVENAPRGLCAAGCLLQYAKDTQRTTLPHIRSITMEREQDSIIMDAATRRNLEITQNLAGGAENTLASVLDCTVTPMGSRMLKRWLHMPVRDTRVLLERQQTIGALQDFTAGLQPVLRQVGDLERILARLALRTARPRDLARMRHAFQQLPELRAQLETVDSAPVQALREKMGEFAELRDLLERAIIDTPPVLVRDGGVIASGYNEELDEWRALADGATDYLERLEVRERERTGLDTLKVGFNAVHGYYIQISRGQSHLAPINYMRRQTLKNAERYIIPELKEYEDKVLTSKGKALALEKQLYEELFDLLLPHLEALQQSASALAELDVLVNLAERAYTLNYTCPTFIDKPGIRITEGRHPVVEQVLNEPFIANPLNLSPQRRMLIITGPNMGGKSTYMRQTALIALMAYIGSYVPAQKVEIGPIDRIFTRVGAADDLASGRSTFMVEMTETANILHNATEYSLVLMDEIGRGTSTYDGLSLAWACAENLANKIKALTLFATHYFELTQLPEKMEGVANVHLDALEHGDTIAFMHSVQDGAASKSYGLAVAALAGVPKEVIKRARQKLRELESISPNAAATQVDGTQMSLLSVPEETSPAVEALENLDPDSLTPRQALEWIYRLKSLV
The data set is described as above. To be noted: protein: recombinant, chain copies: 2, blunt.

Data set [4] concerns the target T2, rsMutS. Kind of data set: EMSA; 1 mM ATPgS, 5 mM MgCl2; MutS EMSA: 5 nM DNA, 20 mM HEPES-KOH pH 7.9, 5 mM MgCl2, 120 mM KCl, 0.5 mg/mL BSA, 1 mM nucleotide, 37 C 15 min; MutL EMSA: 100 nM DNA, 20 mM HEPES pH 8.0 (10). As to conditions: protein: recombinant; tags: N-terminal His6 (pET15b); chain copies: 2; label: 3'-TAMRA on strand 2 (95G4); blunt; 19-nt insert in strand 2 folded as intramolecular parallel G4 within duplex.

In data set [5] the target is T3, ecMutS. Described as above. To be noted: protein: recombinant; chain copies: 2; label: 3'-TAMRA on strand 2 (95G4); blunt; 19-nt insert in strand 2 folded as intramolecular parallel G4 within duplex.
Data set [6] deals with T2, rsMutS. Kind of data set: EMSA; 1 mM ADP, 5 mM MgCl2; MutS EMSA: 5 nM DNA, 20 mM HEPES-KOH pH 7.9, 5 mM MgCl2, 120 mM KCl, 0.5 mg/mL BSA, 1 mM nucleotide, 37 C 15 min; MutL EMSA: 100 nM DNA, 20 mM HEPES pH 8.0 (10). To be noted: protein: recombinant, tags: N-terminal His6 (pET15b), chain copies: 2, blunt.
The target in data set [7] is T3, ecMutS. The data set is described as above. As to conditions: protein: recombinant, chain copies: 2, blunt.
Data set [8] deals with T1, ecMutL. The data set is described as follows: EMSA; no nucleotide, on ice, 100 nM DNA; MutS EMSA: 5 nM DNA, 20 mM HEPES-KOH pH 7.9, 5 mM MgCl2, 120 mM KCl, 0.5 mg/mL BSA, 1 mM nucleotide, 37 C 15 min; MutL EMSA: 100 nM DNA, 20 mM HEPES pH 8.0 (10). To be noted: protein: recombinant, chain copies: 2, blunt.
Where [9] appears, read: label: 3'-TAMRA on strand 2 (95G4), 19-nt insert in strand 2 folded as intramolecular parallel G4 within duplex.
Where [10] appears, read: label: 3'-TAMRA on strand 2 (95(GT)8), 19-nt unstructured (GT)8 loop in strand 2.
The mark [11] stands for this setting: label: 3'-TAMRA on strand 2 (76T), single G/T mismatch.
Where [12] appears, read: label: 3'-TAMRA on strand 2 (76T), perfect duplex.

T1 sequence (P23367 whole entry): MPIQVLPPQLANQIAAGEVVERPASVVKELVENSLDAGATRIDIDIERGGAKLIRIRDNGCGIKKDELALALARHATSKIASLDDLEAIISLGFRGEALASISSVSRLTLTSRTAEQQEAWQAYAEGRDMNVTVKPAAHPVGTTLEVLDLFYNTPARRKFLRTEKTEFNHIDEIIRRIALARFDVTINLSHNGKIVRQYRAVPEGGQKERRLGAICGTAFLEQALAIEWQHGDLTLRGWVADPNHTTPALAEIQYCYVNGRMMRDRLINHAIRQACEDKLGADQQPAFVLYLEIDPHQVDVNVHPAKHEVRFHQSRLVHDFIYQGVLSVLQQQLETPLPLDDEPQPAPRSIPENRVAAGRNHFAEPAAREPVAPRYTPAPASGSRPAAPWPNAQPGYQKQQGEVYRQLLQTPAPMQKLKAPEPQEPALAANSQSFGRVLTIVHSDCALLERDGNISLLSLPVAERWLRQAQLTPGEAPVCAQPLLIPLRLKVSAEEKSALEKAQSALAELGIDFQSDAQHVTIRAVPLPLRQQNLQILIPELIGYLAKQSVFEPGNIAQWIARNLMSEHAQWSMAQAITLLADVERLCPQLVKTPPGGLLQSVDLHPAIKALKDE

B1: 76/95G4-A/T (mixed)
DNA 1: TCCTTTCGCGCTTGGATCCTATGAGCGTTACTCGAGCATATGGCTCAGCTGCCAAGCACCAGTGTCAGCGTCCTAT
DNA 2: ATAGGACGCTGACACTGGTGCTTGGCAGCTGAGCCATATTTGGGTGGGTGGGTGGGTTGCTCGAGTAACGCTCATAGGATCCAAGCGCGAAAGGA
modifications: N6-methyl-dA at position 16 of strand 1 (Gm6ATC)
As to B1, the dissociation constant (Kd) in data set [1] is roughly 200 nM; in data set [2] (setting [9]), 23 ± 3 nM; in data set [3] (setting [9]), 32 ± 4 nM; in data set [4], 46 ± 5 nM; in data set [5] it was 31 ± 4 nM; in data set [6] (setting [9]), 23 ± 3 nM. For the same molecule, the dissociation constant Kd in data set [7] (setting [9]) came to 23 ± 5 nM.

B2: 76/95(GT)8-A/T (mixed)
DNA 1: B1 DNA 1
DNA 2: B1 DNA 2 with G43T, G47T, G51T, G55T
modifications: N6-methyl-dA at position 16 of strand 1 (Gm6ATC)
For the molecule B2, the Kd in data set [2] (setting [10]) turned out to be 43 ± 5 nM; in data set [3] (setting [10]), 44 ± 6 nM; in data set [6] (setting [10]), 31 ± 3 nM; in data set [7] (setting [10]), 32 ± 3 nM. Also, the binding signal in data set [8] (setting [10]) is 1.9 fold lower binding extent than 76/95G4-A/T at 0.1 uM ecMutL.

B3: 76/76-G/T (dsDNA)
DNA 1: B1 DNA 1 with A55G
DNA 2: ATAGGACGCTGACACTGGTGCTTGGCAGCTGAGCCATATGCTCGAGTAACGCTCATAGGATCCAAGCGCGAAAGGA
modifications: N6-methyl-dA at position 16 of strand 1 (Gm6ATC)
On to B3, for which the Kd in data set [2] (setting [11]) was 60 ± 10 nM; in data set [3] (setting [11]), 38 ± 4 nM; in data set [6] (setting [11]), 27 ± 4 nM; in data set [7] (setting [11]) it was 35 ± 3 nM. Besides, the binding signal in data set [8] (setting [11]) is > 3.7 fold lower binding extent than 76/95G4-A/T at 0.1 uM ecMutL (at least).

B4: 76/76-A/T (dsDNA)
DNA 1: B1 DNA 1
DNA 2: B3 DNA 2
modifications: N6-methyl-dA at position 16 of strand 1 (Gm6ATC)
In the case of B4, the equilibrium dissociation constant (Kd) is 80 ± 30 nM in data set [2] (setting [12]), 50 ± 10 nM in data set [3] (setting [12]), 51 ± 4 nM in data set [6] (setting [12]) and 38 ± 4 nM in data set [7] (setting [12]). Besides, the binding signal in data set [8] (setting [12]) is > 3.7 fold lower binding extent than 76/95G4-A/T at 0.1 uM ecMutL (at least).

One may read the Kd as the free concentration of one partner at which half of the binding sites on the other are occupied at equilibrium, for simple one-to-one binding.
